The source of these data is paper PMC4734665.

The series deals with WRKY6-His (UniProt Q9C519). The series can be described thus: EMSA. To be noted: EMSA: 20 uL, 0.5 ug protein, 1 uL of 50 ug/mL biotin probe, 2 uL 10x buffer (1x = 10 mM Tris, 50 mM KCl, 1 mM DTT, pH 7.5), 1 uL 1% NP-40, 0.5 uL 1 mg/mL …. On the technique in general: Mobility shift assays separate free from complexed probe on a gel.
Sequence of WRKY6-His (Q9C519 whole entry, the tested form may be a part): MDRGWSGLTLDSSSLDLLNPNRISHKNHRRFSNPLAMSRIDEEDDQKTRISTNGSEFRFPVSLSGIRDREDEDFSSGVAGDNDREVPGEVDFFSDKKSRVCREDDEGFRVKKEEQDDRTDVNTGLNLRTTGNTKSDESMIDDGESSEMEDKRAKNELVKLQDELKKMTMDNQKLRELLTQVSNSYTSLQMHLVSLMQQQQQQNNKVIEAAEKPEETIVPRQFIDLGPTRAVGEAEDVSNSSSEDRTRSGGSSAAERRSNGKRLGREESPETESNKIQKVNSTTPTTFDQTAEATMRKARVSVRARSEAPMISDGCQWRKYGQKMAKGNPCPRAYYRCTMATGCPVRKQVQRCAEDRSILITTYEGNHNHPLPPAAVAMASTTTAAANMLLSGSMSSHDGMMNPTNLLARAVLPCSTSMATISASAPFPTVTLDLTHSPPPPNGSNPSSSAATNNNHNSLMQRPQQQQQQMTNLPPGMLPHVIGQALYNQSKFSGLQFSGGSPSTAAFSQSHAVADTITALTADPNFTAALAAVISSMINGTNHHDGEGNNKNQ
In the case of “GGAAAATTCCTATTTTCCCGATTACATTTTAACACATCAAAATAGGTACTGTGTTTTATAAATCTGAACAAACAATTAGTAATGTTCATACTTTAACATTTAAAAAATTCAAATTATCTACCTCAACTCTTACTTTTGTACATAATTATGAGTCAACGTTAGTTATGGTAATTAACAGTAACGGTTGTTGAATCAGCTAACACTTGTACGTCGAGATGGCATGTTCTTCAAACCAAAT (double strand) [ABI3 promoter fragment]”, the binding result was “binds”. “GATAAGATCGTAAGCTATCCACATCACTTGTTAATTGTCCTCAAACCATATTATATAATGCAAACAATTTATGGCGTTAAATCCTTACGTATTTATTCTCTATAAGAGTAAAACACACACACTGAAGGCAACTGATTTAATTGGATTTCTATACGTCAGTAGAAATACTTGTTATGATGTCGGTCGCTCGTTGGCTAAGTATTTCTTATAAATATATAAGACATATTTAAAATCTTTTTACATTACATACACCCACTTATGAGAAAC (double strand) [RAV1 promoter P2 mutant]”: the binding entry is given as “no binding”. On to “GATAAGATCGTAAGCTATCCACATCACTTGTTAATTGTCCTCAAACCATATTATATAATGCAAACAATTTATGGCGTTAAATCCTTACGTATTTATTCTCTATAAGAGTAAAACACACACACTGAAGGCAACTGATTTAATTGGATTTCTATTGACCAGTAGAAATACTTGTTATGATGTCGGTCGCTCGTTGGCTAAGTATTTCTTATAAATATATAAGACATATTTAAAATCTTTTTACATTACATACACCCACTTATGAGAAAC (double strand) [RAV1 promoter P2]”, for which the binding result is “binds”.
